Values of other authors in paper PMC4301871, “WW Domains of the Yes-Kinase-Associated-Protein (YAP) Transcriptional Regulator Behave as Independent Units with Different Binding Preferences for PPxY Motif-Containing Ligands” (PLoS ONE, 2015).
Like-named read-outs stand apart in the source and are kept apart here.

Tests used:
[1] = target: p53BP2 (Homo sapiens)
[2] = target: p53BP2 (Homo sapiens); remark: listed apart in the source

Chain of YAP WW1 (P46937 168-207): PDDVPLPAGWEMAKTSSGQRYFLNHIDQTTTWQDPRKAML
Chain of YAP WW2 (P46937 227-266): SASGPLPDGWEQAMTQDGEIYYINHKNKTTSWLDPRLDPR

Row | Substance | Kd [1] | Kd [2]
1 | YAP WW1 (from UniProt P46937) | 1.8 µM | 
2 | YAP WW2 (from UniProt P46937) |  | 12 µM
